Results on 40 sequences are retold here after the nanobody polyreactivity screen of Harvey et al. (2022).

A short description of this data set: yeast display, Sf9 membrane polyspecificity reagent, FACS + sequencing; frameworks hold sequencing errors. The gist of the method: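 After 36–48 hours of galactose induction, yeast (Saccharomyces cerevisiae BJ5465) displaying a synthetic nanobody library were stained at 4 °C for 1 hour with 10% biotinylated, detergent-solubilized Sf9 membrane reagent. Streptavidin microbeads enriched the stained cells before FACS sorting into low and high (top ~1%) gates on anti-HA and streptavidin fluorescence. Each clone's polyreactivity label reflects its gate of origin.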
In the case of “QVQLVESGGGLVQAGGSLRLSCAASGRTFYVYAMGWYRQAPGKERELVAAITFSGGSTYYADSVKGRFTISRDNAKNPVYLQMNSLKPEDTAVYYCNRRSYVPDRFRHDSSVIYDYWGQGTQVTVSS”, the “polyreactivity (PSR sort gate)” value was “low polyreactivity”. As for “QVQLVESGGGLVHAGGSLRLSCAASGFIFYYYTMGWYRQAPGKEREFVAAISSSGTITYYADSVKGRFTISRDNAKNTVYLQMNSLKPEDTAVYYCNAELYYPYEFWRFSGYDYWGQGTQVTVSS”, the “polyreactivity (PSR sort gate)” value was “low polyreactivity”.

For “QVQLVESGGGLVQAGGSLRLSCAASGSTFRVNDMGWYRQAPGKESEFVAGISWSGGSTYYADSVKGRFTISRDNAKNTVYLQMNTLKPEETAVYYCAADGYGQGNNRNYNYGGQGTQVTVSS”, the “polyreactivity (PSR sort gate)” value is “low polyreactivity”.

“QVQLVESGGGLVQAGGSLRLSCAASGSTFGINAMGWYRQAPGKERELVARISTGVRTYYADSVKGRFTISRDNAKNTVYLQMNSLKPEDTAVYYCAAVYYRGVDRAILSYRYYYWGQGTQVTVSS”: the “polyreactivity (PSR sort gate)” value is listed as “high polyreactivity”.

“QVQLVESGVGLVQAGGSLRLSCAASGRIFRWYPMGWYRQAPGKERELVASITWNGGSTYYADSVKGRFTISRDNAKNTVYLQMKSLKPEDTAVYYCAVPFYRGPEMGYWGQGTQVTVSS”: the “polyreactivity (PSR sort gate)” value is given as “high polyreactivity”. For “QVQLVESGGGLVQEGGSLSLICAASGRIYTPYAMGSYRQAPGKERELVAVIRDGSTYYADSVKGRFTISRDNAKNTVYLQMNSLKPADTAVYDCRYDIWVWWSGAYDYWGQCTQVTVSS”, the “polyreactivity (PSR sort gate)” value was “low polyreactivity”. The result for “QVQLVESGGGLVQAGGSLRLSCAASGIIFFYYGMGWYIQAPGKERELVARISSGGSTNYADSVKGRFTISRDNAKITVYLQMNSLKQEDTAVYYCAARISTRYGYWGQGTQVTVSS” reads “low polyreactivity”; that for “QVQLVESGGRLVQAGGSLRLSCAASGSIFGGNDMGWYRQAPGKERELVAAITSSGGSTYYADSVKGRFTISRDNAKNTVYLQMNSLKPEDTAVYYCNADYYGPYRDYGYWGQGTQVTVSS”, “low polyreactivity”; that for “QVQLVESGGGLVQAGGSLRLSCAASGRIFQVNAMGWYRQAPGKERELVAAITYSGGTTYYADSVKGRFTISRDNAKNTVYLQMNSLKPEDTAVYYCAAEGYGAQGDPWQYGYEYWGQGTQVTVSS”, “low polyreactivity”. The result for “QLHLVESAGGLVQAGGSLRLSCVYSGLTQPYAMGWYRHAPGKEREWVAGITCRGASTYYADSVKGRFTISRDNAKNTVYLQLNSLKPEDTAVYYCAARSTIQRRGYYGYRVGLSEYGYWGQGTQVTVSS” reads “low polyreactivity”. On to “QVQLVESGGGLVQAGGSLRLSCAASGSTFSVYAMGWYRQAPGKERELVAAITSGGSTNYADSVKGRFTISRDNAKNTVYLQMNSLKPEDTAVYYCAAYLYDTIYTSYREYDYWGQGTQVTVSS”, for which the “polyreactivity (PSR sort gate)” value was “low polyreactivity”. The result for “QVQLVESGGGLVQAGGSLRLSCAASGRIFSYNAMGWYRQAPGKERELVAAISSDGSTYYADSVKGRFTISRDNAKNTVYLQMNSLKPEDTAVYYCNADPGLYDVLYSSGDFDYWGQGTQVTVSS” reads “low polyreactivity”; that for “QVQLVESGGGLVQAGGSLRLSCAASGLTFYYYAMGWYRQAPGKERELVATISGSGGNTYYADSVKGRFTISRDNAKNTVYLQMNSLKPEDTAVYYCNARYRWWLYYSRDRVYCWGQGTQVTVSS”, “high polyreactivity”. Turning to “QVQLLESGGGLVQPGGSLRLSCAASGSTFYDYAMGWYRTAPGKEREFVADIYSNGGSTYYAHSVKGRFTISRDNANYTVYLQMNSLKPEDTAVYYCASVLRPRQGRRYDYWGQGTQVTVSS”, the “polyreactivity (PSR sort gate)” value was “low polyreactivity”. As for “QVQLVESGGGLVQAGGSLRLICAASGFIMRPYTMGWYRQAPGKERELVAAITSGGRTYYADSVKGRFTISRDNAKNTVYLQMNSLKPEDTAVYYCAALTYYRTVRTFSYPYDYWGQGTQVTVSS”, the “polyreactivity (PSR sort gate)” value is “high polyreactivity”. Under “QVQLVESGGGLVQAGGSLRLSCAASGSTFGHYAMGWYRQAPGKERELVAAITRRGGSTYYADSVKGRFTISRDNAKNTVYLQMNSLKPEDTAVYYCATDKHYVYYSSHMGYWGQGTQVTVSS” stands “high polyreactivity”; under “QVQLVESGGGLVQAGGSLRLSCAASGRIFSQNAMGWYRKAPGKERELVAAIRYSTGSTYYADSVKGRFTISRDNAKNTVYLQMNSLKPEDTAVYYCAADRWVSGYRRPRRGQAHYYWGQGTQVTVSS”, “high polyreactivity”; under “QVQLVESGGGLVQAGGSLRLSCAASGRTFIYYAMGWYRQAPGKERELVAAITYSGTSTYYADAVKGRFTISRDNAKNTVYLQMNSLKPEDTAVYYCAKDGQRDAKYNWGQGTQVTVSS”, “low polyreactivity”. As for “QVQLVESGGGLVQAGGSLRLSCAASGGIFHYYAMGWYRQAPGKERELVAAISWNTGSTYYADSVKGRFTISRDNAKNTVYLQINSLKPEDTAVYYCAASSRRSYLPEGQGEYWGQGTQVTVSS”, the “polyreactivity (PSR sort gate)” value is on record as “high polyreactivity”. The result for “QVQLVESGRGLVQAGGSLRLSCAASGRIIGYYTMGWYRQAPGKERELVAAITRDGGSTYYADSVKGRFTISRDNAKNTVYLQMNSLKPEDTAVYYCTAASQSRYFYWGQGTQVTVSS” reads “high polyreactivity”; that for “QVQLVESGGCLVQAGGSLRLSCAASGSIFGENAMGWYRQAPGKERELVAAITSGGSTDYADSVKGRFTISRDNAKNTVYLQMNSLKTEDTAVYYCAASGRVGPGYWYDSWGQGTQVTVSS”, “low polyreactivity”. As to “QVHLVESGGGLVQAGGSLRLSCAASGGTFRTYAMGWYRQAPGTERELVAAITWRGGSTYYADSVKGRFTISRDNAKNTVYLQMNSLKPEDTAVYYCAARGAYQWSFYKDDYWGQGTQVTVSS”, the “polyreactivity (PSR sort gate)” value is listed as “high polyreactivity”. The result for “QVQLVESGGGLVQAGGSLRLSCAASGSTFGDNAMGWYRQAPGKERELVATITSGGNTNYADSVKGRFTISRDNAKNTVYLQMNSLKPEDTAGYYCNTDFRPAGTTGTTTARYEYWGQGTQVTLSS” reads “low polyreactivity”; that for “QVQLVESGGGLVQAGGSLRLSCAASGRIFANNAMGWYRQAPGKEREFVAAINYSGTSTYYADSVKGRFTISRDNAKNTVYLQMNSLKPEDTAVYYCAADLPYYPYLYDYWGQGTQVTVSS”, “low polyreactivity”. Under “QVQLVESGGGLVQAGGSLRLSCAASGRIFRSYAMGWYRQAPGKERELVADISISGGRTYYADSVKGRFTISRDNAKNTVYLQMNSLKPEDTAVYYCAARTYDRNRQLRRQWYDYWGQGTQVTVSS” stands “high polyreactivity”. The result for “QVQLVESGGGLVQAGGSLRLSCAASGRIFPINAMGWYRQAPGKERELVAAISGDGGDTYYADSVKGRFTISRDNAKNTVYLQMNSLKPEDTAVYYCAADALGYDYYYWGQGTQVTVSS” reads “low polyreactivity”; that for “QVQLVESGGGLVQAGGSLRLSCAASGSIFYINAMGWYRQAPGKERELVAAITSGGTYYADSVKGRFTISRDTAKNTVYLQMNSLKPEDTAVYYCAADREGTPLFDYWGQGTQVTVSS”, “low polyreactivity”. Consider “QVQLVESGGGLVQAGGILRLSCAASGSIYGYNAMGSYRQAPGKERELVADITSSGSTYYADSVKGRFTISRDNAKNTVYLQMNSLKPEDTAVYYCAARYFVYYLEVDSWGQGTQVTVSS”, for which the “polyreactivity (PSR sort gate)” value is “low polyreactivity”.

For the sequence “QVQLVESGGGLVQAGGSLRLSCAASGRIFSIYGMGWYRQAPGKEREFVASITYSGGSTYYADSVKGRFTISRDYAKNTVYLQMNSLKPEDTAVYYCNADIEKSYNYWGQGTQVTVSS”, the “polyreactivity (PSR sort gate)” value is on record as “low polyreactivity”. Under “QVQLVESGGGLVQAGGSLRLSCAASGRTFTSNGMGWYRQAPGKERELVAAITSGTSTYYADSVKGRFTISRDNAKNTVYLQMNSLKPEDTAVYYCNKLVPRGSSYSTVIRGGGYWGQGTQVTVSS” stands “high polyreactivity”; under “QVQLVESGGGLVQAGGSLRLSCAASGLIFTDYVMGWYRQAPGKEREFVAAITGSAGRTYYADSVKGRFTISRDNAKNTVYLQMNSLKPEDTAVYYCNADYWWWHEYDYWGQGTQVTVSS”, “high polyreactivity”. Turning to “QVQLVESGGGLVQAGGSLRLSFGASGLNFGWYAMGWYRKAPGKERELVAAITYDGDSTYYADSVKGRFTISRDNAKNTVYFQMNSLKPEDTAFYYCAGEYGYGEMDSWGQGTQVTVTS”, the “polyreactivity (PSR sort gate)” value was “high polyreactivity”. On to “QVQLVESGGGLVQAGGSLRLSCAASGSTFKINAMGWYRQAPGKERELVAAIRSRGGGTYYADSVKGRFTISRDNAKNTVYLQMNSLKPEDTAVYYCAATRRYHFDYWGQGTQVTVSS”, for which the “polyreactivity (PSR sort gate)” value is on record as “high polyreactivity”.

Take “QVQLVESGGGLVQAGGSLRLSCAASGRTFAQYTMGWYRQAPGKERELVAGIDWSGGNTYYADSVKGRFTISRDNAKNTVYLQMNSLKPEDTAVYYCAAVPAFYNAWGEDYEYWGQGTQVTVSS”: the “polyreactivity (PSR sort gate)” value is “low polyreactivity”. Under “QVQLVESGGGLVQAGGSLRLSCAASGFTFSKYAMGWYRQAPGKERELVAAITRRGSSTYYADSVKGRFTISRDNAKNTVYLQMNSLKPEDTAVYYCNAPRPNGYLGEDNYWGQGTQVTVSS” stands “high polyreactivity”. For the sequence “QVQLVESAGGLVQAGGSLRLSGAASGSTFHNYAVGWSRQAPGKERELVGGISVRGGGTYYADSVKGRFTISRDNAKNTVYLQMNSLKPEDTAVYYCAQRSRYYYRYDYWGQGTQVTVSS”, the “polyreactivity (PSR sort gate)” value is on record as “high polyreactivity”. For the sequence “QVQLGESGGGLVQAGGSLRLSCAASGSTFPRNAMGWYRQATGKERELVATITSSGGGTYYADSVKGRFTISRDNAKITVYLQMNSLKPEHTAVYYCNADGPAGDAFDYWGQGTQVTVSS”, the “polyreactivity (PSR sort gate)” value is recorded as “low polyreactivity”. The result for “QVQLVESGGGLVQAGGSLRLSCAASGRIFGTNAMGWYRQAPGTEMELDADITSGGSTNYADSVKGRFTISRDNAKNTVYLQMNSLKPEDTAVYYCAADVIGDLRWYREEYWGQGTQVTVSS” reads “low polyreactivity”; that for “QVQHVESGGGLVQAGGSLRLSCAASGSIFTVYAMGWYRQAPGKERELVAGITSGGNTNYADSVKGRFTISRDNAKNTVYLQMNSLKPEDTAVYYCAARIYGYVTYGYWGQGTQVTVSS”, “low polyreactivity”; that for “QVQLVESGGGLVQAGGSLRLSCAASGFIFYRYAMGRYRQAPGKERELVAAISWGGGSTTYYADSVKGRFTISRDNAKNTVYLQMNSLKPEDTAVYYCAAYIGKGYGSEYYYWGQGTQVTVSS”, “low polyreactivity”.
